Consider 14 molecules from patent publication US20230052369A1 (Zymeworks, published 2023).

Sequences and labels used below:
B1: v23665 (bispecific antibody, human IgG1, kappa, L234A L235A)
heavy 1: QVQLKESGPGLVAPSQSLSITCTVSGFSLTSYAISWVRQPPGKGLEWLGVIWPGGGTNYNSALKSRLSISKDNSKSQVFLKMNSLQTDDTARYYCARGTGTWYFDVWGAGTTVTVSSASTKGPSVFPLAPSSKSTSGGTAALGCLVKDYFPEPVTVSWNSGALTSGVHTFPAVLQSSGLYSLSSVVTVPSSSLGTQTYICNVNHKPSNTKVDKKVEPKSCDKTHTCPPCPAPEAAGGPSVFLFPPKPKDTLMISRTPEVTCVVVSVSHEDPEVKFNWYVDGVEVHNAKTKPREEQYNSTYRVVSVLTVLHQDWLNGKEYKCKVSNKALPAPIEKTISKAKGQPREPQVYVYPPSRDELTKNQVSLTCLVKGFYPSDIAVEWESNGQPENNYKTTPPVLDSDGSFALVSKLTVDKSRWQQGNVFSCSVMHEALHNHYTQKSLSLSPGGGGGDIVMTQTPSSVSAAVGGTVTIKCQASQTIGSSLAWYQQKPGQPPKLLIYRASTLASGVSSRFRGSGSGTEYTLTISDLECADAATYYCQWTDYGYIYIWAFGGGTEVVVKGGGGSGGGGSGGGGSQEQLVESGGGLVQPEGSLTLTCTASKFSFSSLYYMCWVRQAPGKGLEWIACVYGGSSGNTYYASWAKGRFTISKASSTTVTLQLTSLTAADTATYFCARFDVDGSGFNLWGPGTLVTVSS
heavy 2: QVQLKESGPGLVAPSQSLSITCTVSGFSLTSYAISWVRQPPGKGLEWLGVIWPGGGTNYNSALKSRLSISKDNSKSQVFLKMNSLQTDDTARYYCARGTGTWYFDVWGAGTTVTVSSASTKGPSVFPLAPSSKSTSGGTAALGCLVKDYFPEPVTVSWNSGALTSGVHTFPAVLQSSGLYSLSSVVTVPSSSLGTQTYICNVNHKPSNTKVDKKVEPKSCDKTHTCPPCPAPEAAGGPSVFLFPPKPKDTLMISRTPEVTCVVVSVSHEDPEVKFNWYVDGVEVHNAKTKPREEQYNSTYRVVSVLTVLHQDWLNGKEYKCKVSNKALPAPIEKTISKAKGQPREPQVYVLPPSRDELTKNQVSLLCLVKGFYPSDIAVEWESNGQPENNYLTWPPVLDSDGSFFLYSKLTVDKSRWQQGNVFSCSVMHEALHNHYTQKSLSLSPG
light: DIQMTQTTSSLSASLGDRVTISCSASQGISNYLNWYQQKPDGTVKLLIYYTSSLHSGVPSRFSGSGSGTDYSLTISNLEPEDIATYYCQQYSDLPWTFGGGTKLEIKRTVAAPSVFIFPPSDEQLKSGTASVVCLLNNFYPREAKVQWKVDNALQSGNSQESVTEQDSKDSTYSLSSTLTLSKADYEKHKVYACEVTHQGLSSPVTKSFNRGEC
notes: also called 6B3 x 1H06 (VLVH) 2x1
B2: v23661 (bispecific antibody, human IgG1, kappa, L234A L235A)
heavy 1: B1 heavy 1 with S31T, V50I, K75R, T99A
heavy 2: B1 heavy 2 with S31T, V50I, K75R, T99A
light: B1 light with T7S, L15V, D93K, L94F
notes: also called 1C8 x 1H06 (VLVH) 2x1
B3: v23663 (bispecific antibody, human IgG1, kappa, L234A L235A)
heavy 1: B1 heavy 1 with S35N, I51L, T99S
heavy 2: B1 heavy 2 with S35N, I51L, T99S
light: B1 light with I21F, S56L, D93K
notes: also called 4E6 x 1H06 (VLVH) 2x1
B4: v23657 (bispecific antibody, human IgG1, kappa, L234A L235A)
heavy 1: QVQLKQSGPGLVQPSQSLSITCTVSGFSLTSYGVHWVRQSPGKGLEWLGVIWSGGSTDYNAAFISRLSISKDNSKSQVFFKMNSLQADDTAIYYCARNPLTATVMDYWGQGTSVTVSSASTKGPSVFPLAPSSKSTSGGTAALGCLVKDYFPEPVTVSWNSGALTSGVHTFPAVLQSSGLYSLSSVVTVPSSSLGTQTYICNVNHKPSNTKVDKKVEPKSCDKTHTCPPCPAPEAAGGPSVFLFPPKPKDTLMISRTPEVTCVVVSVSHEDPEVKFNWYVDGVEVHNAKTKPREEQYNSTYRVVSVLTVLHQDWLNGKEYKCKVSNKALPAPIEKTISKAKGQPREPQVYVYPPSRDELTKNQVSLTCLVKGFYPSDIAVEWESNGQPENNYKTTPPVLDSDGSFALVSKLTVDKSRWQQGNVFSCSVMHEALHNHYTQKSLSLSPGGGGGDIVMTQTPASVEAAVGGTVTIKCQASQSIYSSLAWYQQKPGQSPKLLIYDASHLASGVPSRFSGSRYGTEFTLTISGVQCDDAATYYCQGGWYSSAATYVPNTFGGGTEVVVKGGGGSGGGGSGGGGSQEQLVESGGGLVQPEGSLTLTCKASGFTISNNYYMCWVRQAPGKGLEWIACIYGGISGRTYYASWAKGRFTISKTSSTTVTLQMTSLTAADTATYFCVRGYVGTSNLWGPGTLVTVSS
heavy 2: QVQLKQSGPGLVQPSQSLSITCTVSGFSLTSYGVHWVRQSPGKGLEWLGVIWSGGSTDYNAAFISRLSISKDNSKSQVFFKMNSLQADDTAIYYCARNPLTATVMDYWGQGTSVTVSSASTKGPSVFPLAPSSKSTSGGTAALGCLVKDYFPEPVTVSWNSGALTSGVHTFPAVLQSSGLYSLSSVVTVPSSSLGTQTYICNVNHKPSNTKVDKKVEPKSCDKTHTCPPCPAPEAAGGPSVFLFPPKPKDTLMISRTPEVTCVVVSVSHEDPEVKFNWYVDGVEVHNAKTKPREEQYNSTYRVVSVLTVLHQDWLNGKEYKCKVSNKALPAPIEKTISKAKGQPREPQVYVLPPSRDELTKNQVSLLCLVKGFYPSDIAVEWESNGQPENNYLTWPPVLDSDGSFFLYSKLTVDKSRWQQGNVFSCSVMHEALHNHYTQKSLSLSPG
light: DIVMTQSQKFMSTSVGDRVSVTCKASQNVGTNVAWYQQKPGQSRTVLIYSASYRHSGVPDRFTGSGSGTDFTLTISNVQSEDLAEYFCQQYNSYPLTFGTGTKLELKRTVAAPSVFIFPPSDEQLKSGTASVVCLLNNFYPREAKVQWKVDNALQSGNSQESVTEQDSKDSTYSLSSTLTLSKADYEKHKVYACEVTHQGLSSPVTKSFNRGEC
notes: also called 2E8 x 8K22 (VLVH) 2x1
B5: v23664 (bispecific antibody, human IgG1, kappa, L234A L235A)
heavy 1: QVQLQESGPGLVQPTQSLSITCTVSGFSLISYGVHWVRQSPGKGLEWLGVIWSGGSTDYNAAFISRLSISKDNSKSQVFFKMNSLQADDTAIYYCARNPLTATVMDYWGQGTSVTVSSASTKGPSVFPLAPSSKSTSGGTAALGCLVKDYFPEPVTVSWNSGALTSGVHTFPAVLQSSGLYSLSSVVTVPSSSLGTQTYICNVNHKPSNTKVDKKVEPKSCDKTHTCPPCPAPEAAGGPSVFLFPPKPKDTLMISRTPEVTCVVVSVSHEDPEVKFNWYVDGVEVHNAKTKPREEQYNSTYRVVSVLTVLHQDWLNGKEYKCKVSNKALPAPIEKTISKAKGQPREPQVYVYPPSRDELTKNQVSLTCLVKGFYPSDIAVEWESNGQPENNYKTTPPVLDSDGSFALVSKLTVDKSRWQQGNVFSCSVMHEALHNHYTQKSLSLSPGGGGGDIVMTQTPSSVSAAVGGTVTIKCQASQTIGSSLAWYQQKPGQPPKLLIYRASTLASGVSSRFRGSGSGTEYTLTISDLECADAATYYCQWTDYGYIYIWAFGGGTEVVVKGGGGSGGGGSGGGGSQEQLVESGGGLVQPEGSLTLTCTASKFSFSSLYYMCWVRQAPGKGLEWIACVYGGSSGNTYYASWAKGRFTISKASSTTVTLQLTSLTAADTATYFCARFDVDGSGFNLWGPGTLVTVSS
heavy 2: B4 heavy 2 with K5Q, Q6E, S15T, T30I
light: B4 light with R44P, T45K, V46A, H55D, F87L, T100A
notes: also called 5G8 x 1H06 (VLVH) 2x1
B6: v23659 (bispecific antibody, human IgG1, kappa, L234A L235A)
heavy 1: B4 heavy 1 with K5Q, Q6E, S15T, T30I
heavy 2: B4 heavy 2 with K5Q, Q6E, S15T, T30I
light: B4 light with R44P, T45K, V46A, H55D, F87L, T100A
notes: also called 5G8 x 8K22 (VLVH) 2x1
B7: v28725 (antibody, human IgG1, kappa, L234A L235A, V domains shown)
VH: EVQLVESGGGLIQPGGSLRLSCAVSGFSLTTYAISWVRQAPGKGLEWLGIIWPGGGTNYADSVKGRFTISKDNSKNTLYLQMNSLRAEDTAVYYCARGAGTWYFDVWGQGTLVTVSS
VL: DIQMTQSPSSLSASVGDRVTITCSASQGISNYLNWYQQKPGKAPKLLIYYTSSLHSGVPSRFSGSGSGTDYTLTISSLQPEDIATYYCQQYSKFPWTFGQGTKLEIKR
notes: also called humanized 1C8 H7L2
B8: v28721 (antibody, human IgG1, kappa, L234A L235A, V domains shown)
VH: B7 VH with K71R
VL: B7 VL with Y71F, L73F, L104V
notes: also called humanized 1C8 H6L1
B9: v28717 (antibody, human IgG1, kappa, L234A L235A, V domains shown)
VH: B7 VH with V24A, L48V, G49S, K71R
VL: B7 VL with Y71F, L73F, L104V
notes: FSA format, human IgG1/kappa; also called humanized 1C8 H5L1
B10: v28719 (antibody, human IgG1, kappa, L234A L235A, V domains shown)
VH: B7 VH with V24A, L48V, G49S, K71R
VL: B7 VL
notes: also called humanized 1C8 H5L2
B11: v28722 (antibody, human IgG1, kappa, L234A L235A, V domains shown)
VH: B7 VH with K71R
VL: B7 VL
notes: also called humanized 1C8 H6L2
B12: v28723 (antibody, human IgG1, kappa, L234A L235A, V domains shown)
VH: B7 VH with K71R
VL: B7 VL with A43T, P44V
notes: also called humanized 1C8 H6L3
B13: v28724 (antibody, human IgG1, kappa, L234A L235A, V domains shown)
VH: B7 VH
VL: B7 VL with Y71F, L73F, L104V
notes: also called humanized 1C8 H7L1
B14: v28720 (antibody, human IgG1, kappa, L234A L235A, V domains shown)
VH: B7 VH with V24A, L48V, G49S, K71R
VL: B7 VL with A43T, P44V
notes: also called humanized 1C8 H5L3

Changes are numbered by the printed parent chain.

T2 sequence (Q07011 other isoform, or with tags, fused parts or gaps limits assumed): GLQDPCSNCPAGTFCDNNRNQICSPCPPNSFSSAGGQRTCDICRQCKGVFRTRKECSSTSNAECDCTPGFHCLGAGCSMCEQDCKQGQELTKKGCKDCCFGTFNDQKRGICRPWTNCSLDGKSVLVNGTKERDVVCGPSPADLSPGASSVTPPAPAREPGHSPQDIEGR
T1 sequence (P15328 25-234 limits assumed): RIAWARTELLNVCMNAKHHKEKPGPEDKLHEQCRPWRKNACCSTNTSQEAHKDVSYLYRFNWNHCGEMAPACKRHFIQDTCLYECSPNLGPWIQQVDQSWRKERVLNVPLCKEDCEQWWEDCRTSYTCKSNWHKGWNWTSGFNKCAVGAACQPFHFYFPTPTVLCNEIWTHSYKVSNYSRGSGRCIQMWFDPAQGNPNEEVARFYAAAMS

The first experiment concerns the target T1, full-length human FRα, on 293E cells (human, UniProt P15328 25-234).
T1 construct: also called folate receptor alpha; FOLR1
The experiment can be described thus: flow cytometry, 293E cells expressing FRα.
Protocol: Antibodies were diluted in 50 μl FB (PBS 2% FCS) 1:3 from stock in wells of a 96 V-well plate, and cells added on top. The cells were then left on ice for 30 minutes for the antibodies to bind. The cells were then washed twice in FB, and incubated in 50 μl FB containing 2 μg/ml goat anti-human Alexa647 antibody (Jackson Immunoresearch). The cells were then left on ice for a further 20 minutes, washed twice in FB, resuspended in 100 μl FB and analyzed on a BD Fortessa™ X20. The subsequent data files were analyzed using FlowJo™ and Prism 7 (GraphPad).
Regarding B1, the binding result is reported as “binds”.

For the molecule B2, the binding result was “binds”.

With B3, the binding result is recorded as “binds”.

Take B4: the binding result is given as “binds”.

As to B5, the binding result was “binds”.

As to B6, the binding result is recorded as “binds”.

Another experiment addresses T2, purified human monomeric 4-1BB (human, UniProt Q07011 24-186).
T2 construct: the assay used the 4-1BB part released by Factor Xa with the Fc removed; also called h4-1BB; human 4-1BB
Briefly: SPR, Ab captured, monomeric 4-1BB injected.
Protocol: (§1) The anti-human Fc surface was prepared on a CMS Series S sensorchip by standard amine coupling methods as described by the manufacturer (GE Healthcare). Briefly, immediately after EDC/NHS activation, a 25 μg/mL solution of anti-human Fc in 10 mM NaOAc pH 4.5 was injected at a flow rate of 10 μL/min for 420 s until approximately 2000 resonance units (RUs) were immobilized on all four flow cells. The remaining active groups were quenched by a 420 s injection of 1M ethanolamine at 10 μL/min.
(§2) Antibodies for analysis were captured onto the anti-Fc surface by injecting 5 μg/mL solutions at a flow rate of 10 μL/min for 60 s. Using single-cycle kinetics, five concentrations of a two-fold dilution series of 4-1BB starting at 40 nM (for both supernatant and purified antibody runs) with a blank buffer control were sequentially injected at 40 μL/min for 180 s with a 600 s dissociation phase, resulting in a set of sensorgrams with a buffer blank reference. Experiments were performed at a constant temperature of 25° C. The anti-human Fc surfaces were regenerated to prepare for the next injection cycle by one pulse of 10 mM Glycine/HCl pH 1.5 for 120 s at 40 μL/min. Blank-subtracted sensorgrams were analyzed using Biacore™ T200 Evaluation Software v3.0. The blank-subtracted sensorgrams were then fit to the 1:1 Langmuir binding model.
Protein material post protein-A or SEC was assessed for binding to human 4-1BB.
For the molecule B7, the binding result is on record as “no binding”.

On to B8, for which the binding result is recorded as “no binding”.

As for B9, the binding result is listed as “no binding”.

For the molecule B10, the binding result was “no binding”.

For the molecule B11, the binding result is given as “no binding”.

On to B12, for which the binding result is given as “no binding”.

As for B13, the binding result was “no binding”.

In the case of B14, the binding result is “no binding”.

In another experiment the target is T2, purified human monomeric 4-1BB. Briefly: SPR, Ab captured, monomeric 4-1BB injected. The source holds these as a separate data set. (In SPR one partner is held on a chip, and binding of the other changes the refractive index at the surface.)
Protocol: as §1, §2
Variants purified by SEC were assessed for binding to human 4-1BB.
The term Kd denotes the concentration at which binding is half-saturated. High values mean weaker binding, low ones tighter binding. For B1, the Kd stood at 464 nM.

In the case of B2, the Kd stood at 535 nM.

In the case of B3, the Kd was 502 nM.

In the case of B4, the Kd was 175 nM.

In the case of B5, the Kd turned out to be 220 nM.

As for B6, the Kd was determined as 208 nM. The Kd values of the last two molecules are within 1.5-fold of each other.
